In patent US20260274985A1 (MYTHIC THERAPEUTICS, published 2026):
Positions count from the first letter of the chain named. Values belong to the binder of their own block, whether it stands above or below them.

Molecular target: T1, TROP2 on TROP2-positive NCI-H1975 cells (human, UniProt P09758 27-323)
T1 sequence: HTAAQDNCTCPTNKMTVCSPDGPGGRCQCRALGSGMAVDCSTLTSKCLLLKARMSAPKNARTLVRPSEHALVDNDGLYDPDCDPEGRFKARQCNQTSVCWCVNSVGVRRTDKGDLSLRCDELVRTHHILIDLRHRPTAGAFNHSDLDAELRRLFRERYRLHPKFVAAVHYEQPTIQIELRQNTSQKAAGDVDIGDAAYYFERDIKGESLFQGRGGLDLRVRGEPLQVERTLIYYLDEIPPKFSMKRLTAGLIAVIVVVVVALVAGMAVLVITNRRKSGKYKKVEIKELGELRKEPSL
Experiment: cell-based or functional assay

- FOW H1975 (10 nM): 1.83 fold over parent antibody
B1: MYT13429 (antibody, V domains shown)
VH: QVQLQQSGSELKKPGASVKVSCKASGYTFTNYGMNWVKQAPGQGLKWMGWINTYTGEPTYTDDFKHRFAFSLDTSVSTAYLQISSLKADDTAVYFCARGGFGSSYWYFDVWGQGSLVTVSS
VL: DIQLTQSPSSLSASVGDRVSITCKASQDVHIAVAWYQQKPGKAPKLLIYSHSYRYTGVPDRFSGSGSGTDFTLTISSLQPEDFAVYYCQQHYHTPLTFGAGTKVEIK

- FOW H1975 (10 nM): 1.34 fold over parent antibody
B2: MYT13420 (antibody, V domains shown)
VH: B1 VH with K65H, H66G
VL: B1 VL with Q89H, H93I

- FOW H1975 (10 nM): 1.46 fold over parent antibody
B3: MYT13434 (antibody, V domains shown)
VH: B1 VH with D63H, H66G
VL: B1 VL with H30S, Y53H

- FOW H1975 (10 nM): 1.42 fold over parent antibody
B4: MYT13376 (antibody, V domains shown)
VH: B1 VH with Y60H, H66G
VL: B1 VL with H93I

- FOW H1975 (10 nM): 1.08 fold over parent antibody
B5: MYT13404 (antibody, V domains shown)
VH: B1 VH with K65H, H66G
VL: B1 VL with H30S, V33H, H51A

- FOW H1975 (10 nM): 1.13 fold over parent antibody
B6: MYT13403 (antibody, V domains shown)
VH: B1 VH with F64H, H66G
VL: B1 VL with H30S, V33H, H51A

- FOW H1975 (10 nM): 1.13 fold over parent antibody
B7: MYT13400 (antibody, V domains shown)
VH: B1 VH with Y60H, H66G
VL: B1 VL with H30S, V33H, H51A

- FOW H1975 (10 nM): 1.29 fold over parent antibody
B8: MYT13416 (antibody, V domains shown)
VH: B1 VH with Y60H, H66G
VL: B1 VL with Q89H, H93I

- FOW H1975 (10 nM): 1.37 fold over parent antibody
B9: MYT13374 (antibody, V domains shown)
VH: B1 VH with Y32H, H66G
VL: B1 VL with H93I

- FOW H1975 (10 nM): 1.16 fold over parent antibody
B10: MYT13401 (antibody, V domains shown)
VH: B1 VH with D62H, H66G
VL: B1 VL with H30S, V33H, H51A

- FOW H1975 (10 nM): 1.76 fold over parent antibody
B11: MYT13417 (antibody, V domains shown)
VH: B1 VH with D62H, H66G
VL: B1 VL with Q89H, H93I

- FOW H1975 (10 nM): 1.19 fold over parent antibody
B12: MYT13392 (antibody, V domains shown)
VH: B1 VH with Y60H, H66G
VL: B1 VL with H30S, V33H, H51A, Y53H, H93I

- FOW H1975 (10 nM): 1.13 fold over parent antibody
B13: MYT13422 (antibody, V domains shown)
VH: B1 VH with Y32H, H66G
VL: B1 VL

- FOW H1975 (10 nM): 1.26 fold over parent antibody
B14: MYT13377 (antibody, V domains shown)
VH: B1 VH with D62H, H66G
VL: B1 VL with H93I

- FOW H1975 (10 nM): 1.33 fold over parent antibody
B15: MYT13379 (antibody, V domains shown)
VH: B1 VH with F64H, H66G
VL: B1 VL with H93I

- FOW H1975 (10 nM): 1.4 fold over parent antibody
B16: MYT13378 (antibody, V domains shown)
VH: B1 VH with D63H, H66G
VL: B1 VL with H93I

- FOW H1975 (10 nM): 1.71 fold over parent antibody
B17: MYT13386 (antibody, V domains shown)
VH: B1 VH with D63H, H66G
VL: B1 VL with H51A, S52H, H93I

- FOW H1975 (10 nM): 1.24 fold over parent antibody
B18: MYT13388 (antibody, V domains shown)
VH: B1 VH with K65H, H66G
VL: B1 VL with H51A, S52H, H93I

- FOW H1975 (10 nM): 1.35 fold over parent antibody
B19: MYT13366 (antibody, V domains shown)
VH: B1 VH with Y32H, H66G
VL: B1 VL with V33H, H51A, H93I

- FOW H1975 (10 nM): 1.49 fold over parent antibody
B20: MYT13437 (antibody, V domains shown)
VH: B1 VH
VL: B1 VL with H30S, Y53H

- FOW H1975 (10 nM): 1.6 fold over parent antibody
B21: MYT13373 (antibody, V domains shown)
VH: B1 VH
VL: B1 VL with V33H, H51A, H93I

- FOW H1975 (10 nM): 1.42 fold over parent antibody
B22: MYT13421 (antibody, V domains shown)
VH: B1 VH
VL: B1 VL with Q89H, H93I

- FOW H1975 (10 nM): 1.18 fold over parent antibody
B23: MYT13372 (antibody, V domains shown)
VH: B1 VH with K65H, H66G
VL: B1 VL with V33H, H51A, H93I

- FOW H1975 (10 nM): 1.1 fold over parent antibody
B24: MYT13402 (antibody, V domains shown)
VH: B1 VH with D63H, H66G
VL: B1 VL with H30S, V33H, H51A

- FOW H1975 (10 nM): 1.82 fold over parent antibody
B25: MYT13433 (antibody, V domains shown)
VH: B1 VH with D62H, H66G
VL: B1 VL with H30S, Y53H

- FOW H1975 (10 nM): 1.71 fold over parent antibody
B26: MYT13424 (antibody, V domains shown)
VH: B1 VH with Y60H, H66G
VL: B1 VL

- FOW H1975 (10 nM): 1.29 fold over parent antibody
B27: MYT13395 (antibody, V domains shown)
VH: B1 VH with F64H, H66G
VL: B1 VL with H30S, V33H, H51A, Y53H, H93I

- FOW H1975 (10 nM): 1.51 fold over parent antibody
B28: MYT13418 (antibody, V domains shown)
VH: B1 VH with D63H, H66G
VL: B1 VL with Q89H, H93I

- FOW H1975 (10 nM): 1.43 fold over parent antibody
B29: MYT13368 (antibody, V domains shown)
VH: B1 VH with Y60H, H66G
VL: B1 VL with V33H, H51A, H93I

- FOW H1975 (10 nM): 1.71 fold over parent antibody
B30: MYT13426 (antibody, V domains shown)
VH: B1 VH with D63H, H66G
VL: B1 VL

- FOW H1975 (10 nM): 1.4 fold over parent antibody
B31: MYT13432 (antibody, V domains shown)
VH: B1 VH with Y60H, H66G
VL: B1 VL with H30S, Y53H

- FOW H1975 (10 nM): 1.51 fold over parent antibody
B32: MYT13371 (antibody, V domains shown)
VH: B1 VH with F64H, H66G
VL: B1 VL with V33H, H51A, H93I

- FOW H1975 (10 nM): 1.33 fold over parent antibody
B33: MYT13435 (antibody, V domains shown)
VH: B1 VH with F64H, H66G
VL: B1 VL with H30S, Y53H

- FOW H1975 (10 nM): 1.16 fold over parent antibody
B34: MYT13405 (antibody, V domains shown)
VH: B1 VH
VL: B1 VL with H30S, V33H, H51A
